Tested on: MS2 coat protein
Experiment: apparent KD of MS2 coat protein; designed switch direction (-1 OFF switch, 1 ON switch): -1; higher = weaker reporter binding
Outline: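 The reported apparent KD is a per-design median over clusters, from curve fits of normalised cluster fluorescence. Protein titrations used SNAP-549-labelled MS2 coat protein, doubled from 0.7 or 1.5 nM to 3 µM, in Tris-HCl pH 7.5 buffer with KCl, MgCl2, BSA, DTT, tRNA and Tween-20, with no input, 200 uM small-molecule ligand, or an oligonucleotide input. The RNA switches were transcribed on Illumina chips by stalled E. coli RNA polymerase.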

[1] = Eterna round: R95, input ligand: FMN 200 uM
[2] = Eterna round: R95, input ligand: microRNA oligo, concentration not stated
[3] = Eterna round: R95, input ligand: none
[4] = input ligand: microRNA oligo, concentration not stated

Sequence	apparent KD of MS2 coat protein (input ligand: FMN 200 uM) [nM]	apparent KD of MS2 coat protein (input ligand: none) [nM]	apparent KD of MS2 coat protein [1] [nM]	apparent KD of MS2 coat protein [2] [nM]	apparent KD of MS2 coat protein [3] [nM]	apparent KD of MS2 coat protein [4] [nM]
GGAAACCGAGGAUAUCAGUACACGCACAUGAGGAUCACCCAUGUGCUCCUGGGUGCUGUCUGAGAAGGCGGUGAGA [Quan] (Eterna round: R97, puzzle: Exclusion 5)	648	1620				
GGAUCGAGUGUGAGGAUAUGCUGGUCCUUGGAUCAGCAGAAGGCACAUGAGGAUCACCCAUGUGGAGACGGUCC [JL bmx4 3.17] (puzzle: Brourd's mod of Exclusion 4)			298	92.4	102	
CUCGCAUUAGGAUAUACAUGAGGAUCACCCAUGUAUAAACCCAGGGUCAACGCCAUAUGUAGAAGGAGUAGCGA [Eternabot (L1) Solution 59] (Eterna round: R97, puzzle: Exclusion 3)	22.2	17				
UUCCUACAUGAGGAUCACCCAUGUCAGGAUAUAUAAAACGCUCAGAUAAAAGAGCAAGAUAGAAGGGAUUGGGA [Aquis] (Eterna round: R97, puzzle: Exclusion 1)	14.5	15.1				
UCAUACGUUGAGGAUAUGUCAGUUAGAAUAUUUACAGAAGGCGAUACAUGAGGAUCACCCAUGUUUAUGGGCAU [Ex-6 Malc#5] (puzzle: Exclusion 6)				173		
UUUUAGGAAGGAUAUACAUUUUUUUUAUUAUCCUCAUUAUUACAUGAGGAUCACCCAUGUAGAAGGUCCAUUUU [My Design] (puzzle: Exclusion 2)				175		
UUUAAUUUUUUUUUUUUACAAGCUUUUUGCUCGUCUUAUACAUGAGGAUCACCCAUGUGGAUGGGAGAUAAAUUAUC [JMF 19] (puzzle: Sensor v3, turn-off variant 2)			30.9	164	36.4	
GAUUACUGCAAGCUUUGGGACAUGAGGAUCACCCAUGUUCGUCUUAUUGAUCUAGGUACGCUGACGUACCUAGAUCU [JL-sv1-2.28 Brourd mod] (puzzle: Sensor v3, turn-off variant 1)			15.8	26	14.1	
AUUAUUUAAGUCAGGAUAUCGUAUUUAUUUAAAUACGAGAAGGGACAUGAGGAUCACCCAUGUAAUAAAUUUUA [JMFs Solution 2] (puzzle: Brourd's mod of Exclusion 4)				16.6		
GUGGCACAUGAGGAUCACCCAUGUCAGGAUAUCGUGUGUUUUUUUUCGGCCGCGCGCGCGAGAAGGGACGUCUU (puzzle: Exclusion 1)				97.8		
UGAGUGCUGCGAGGAUAUACAUGAGGAUCACCCAUGUAAUCGUGUGAGCCAAAGGCUCACACGAAGUAGAAGGCGCAGUACUCU [Mat - Exclusion NG 2 - Mod of JL - D25] (Eterna round: R96, puzzle: Exclusion NG 2)	12.5	15.2				11.1
AGUACUAUCACGAAAGUGAUAGUACAAAGAGCAAGUGGAACAUGAGGAUCACCCAUGUCCUCAUAUGCUCGUCUUAU [salish99-s2-v2-x003] (Eterna round: R96, puzzle: Sensor v2, turn-off variant 2)	14.6	16.1				322
UUUUAACAUGAGGAUCACCCAUGUGAGGAUAUCGUAUUUUUUUUUUUUUUUUUUUUUUCGAGAAGGCACAUUUU [My solution] (puzzle: Exclusion 1)			1.24	6.56	16.5	
CUGGUCCGAGGAUAUAUUAUGUGAAACAUGAGGAUCACCCAUGUUAUAUAAUGGAUGUAAAUAGAAGGCGGACUAG [Mat - Exclusion 5 - JL mod - D62] (puzzle: Exclusion 5)			27.7	25.5	28.2	
UAACAUGUACAAGGAUAUCAGCACGAUUAGUGCUGAGAAGGUGUAACAUGAGGAUCACCCAUGUAGAUCAUUAAUUAAUUAAUU [ENG1/9-B1] (Eterna round: R96, puzzle: Exclusion NG 1)	319	56.6				60.9
GGGUGCAGGCUGAGAUCCUACAUGAGGAUCACCCAUGUGGUCCGGUGACGUGAGUCACCGGACUUAGCUCGUCUUGU [salish99_S_TOV1_R5_007] (Eterna round: R97, puzzle: Sensor, turn-off variant 1)	162	192				
AAUAACAGAGGAUAUACUAUUUUAUGUGUUUGUUAUUUUAAACAUGAGGAUCACCCAUGUAGAAGGCUGAUUGA [JMF 72] (puzzle: Exclusion 2)				41		

Sequence	apparent KD of MS2 coat protein (input ligand: FMN 200 uM) [nM]	apparent KD of MS2 coat protein (input ligand: none) [nM]	apparent KD of MS2 coat protein [1] [nM]	apparent KD of MS2 coat protein [2] [nM]	apparent KD of MS2 coat protein [3] [nM]	apparent KD of MS2 coat protein [4] [nM]
GGUAGAGUGGUAGGAUAUCCGACUGAAACAGACGGAGAAGGACCACAGUCACUGGGUCCACUUAUAAUUAACAAUAAAUCUACC [pwkr exNG1 F6.2] (Eterna round: R96, puzzle: Exclusion NG 1)	326	263				120
AAAAAGGGAGGAUAUACAUGAGGAUCACCCAUGUAGCAGACGAAAAAGAGUCUGUAAUGUAGAAGGCCCAAAAA [65%, Moding Exclusion3-cac2, 4] (Eterna round: R96, puzzle: Exclusion 3)	50.9	17.5				13.1
AGAGGGCGAGGAUAUGCUAAAAGUGGUGCAGUUGUUCGUCGACUUGAGGAUCACCCAAGUAGAAGGCGCACUUC [Sointeer] (Eterna round: R97, puzzle: Exclusion 2)	67.9	18.5				
GUCAGCUCGUCAGGAUAUACAUGCGUGCUUCGGCACGUAUGAUAGAUCACAUGAGGAUCACCCAUGUAGAAGGGACGAGCUGAC [ENG2/4-B1] (Eterna round: R96, puzzle: Exclusion NG 2)	13.2	12.5				9.92
AGUAGAUCUACGCUUGCGUGGAUCUGCAAUGCAGGUGUUACAUGAGGAUCACCCAUGUCCUCGUUUGCUCGUCUUAU [JL turnoff v2 99.12] (puzzle: Sensor v3, turn-off variant 2)			209	664	222	
UGAGUGCUGCGAGGAUAUACAUGAGGAUCACCCAUGUUUUCGUGUGAGGCUUUGCCUCACACGAUGUAGAAGGCGCAGUACUCU [JL ENG2 1.13] (Eterna round: R96, puzzle: Exclusion NG 2)	11.5	12.8				8.16
GAUCCUUAAGUCAGGAUAUCAAGCAAACUCUAAAUUGAGAAGGGACAUGAGGAUCACCCAUGUCACCGAAAUAA [Zabema] (puzzle: Brourd's mod of Exclusion 4)				13		
CCGAAUAUGCAGGAUAUCUUAUCGGAAACGAUAAGAGAAGGGUAAACAUGAGGAUCACCCAUGUUCCUUAACGG [Mat - Exclusion 6 - Eli Mod - D80] (puzzle: Exclusion 6)				18.9		
GUUGUUUAUGUAGGAUAUGCCUGGCGUGCCUUUGCAGAAGGACAUGAGGAUCACCCAUGUAACAUGAGGCUCACCCAUGUCGCU [salish99_ExNG1_r04_108] (Eterna round: R96, puzzle: Exclusion NG 1)	397	296				159
GGUUGGCGAGGAUAUACAUGAGGAUCACCCAUGUGAAAGAAAAAAGUGAGGAAGAAAAGUAGAAGGCGCUGACG [salish99_ex3_r3_016] (puzzle: Exclusion 3)			5.86	8.93	14.4	
AAAUACAAGUAGAGAUUCUACAUGAGGAUCACCCAUGUGCUCGUCUUAUAAAGUACUAUCACGAAAGUGAUAGUACA [Sensor 3, v1 - 37] (puzzle: Sensor v3, turn-off variant 1)			14.2	211	14.1	
ACAAUUAUGACAGGAUAUAGUUUUUGUUGGUCACUAGAAGGGUCUAUGCACAUGAGGAUCACCCAUGUUCUUUUUAUAUGCGAU [JR_ExcNG1_Sub018] (Eterna round: R96, puzzle: Exclusion NG 1)	31.8	44.4				36.2
GGAGGUGAGGUAAGGAUAUCCUCCUCGAAAGAGGAGGAGAAGGUACAUGAGGAUCACCCAUGUAAGGAAGGAGG [AK-MS2ROC-r4-Bmoexclusion4-11] (Eterna round: R97, puzzle: Brourd's mod of Exclusion 4)	152	54.2				
GAUGUACAUGAGGAUCACCCAUGUCAGGAUAUUAGGCGCCCUCAUAGCAGGGCCAUGAUGAGAAGGGACAGUAC [Eternabot (L2) Solution 33] (Eterna round: R97, puzzle: Exclusion 1)	67.6	66.4				
AAUUCACAUGAGGAUCACCCAUGUCAGGAUAUGCUGACGCGGGUUUCGGUGCGUGUUGGCAGAAGGGACAGCUA (puzzle: Exclusion 1)				144		
GUCAUCACACAUGGGAUCAACAUGAGGAUCACCCAUGUUGCCAAGUUGUUUGCACGUCUUAUCAUACGUUUUUCGAU [Mod-Jxi] (Eterna round: R97, puzzle: Sensor, turn-off variant 1)	22.2	22.7				
CGUGAGCGCGUCAGGAUAUGGCGGCGGCGGCGGCGCCAGAAGGGACAUGAGGAUCACCCAUGUUGCGUGCGUGG [Prefect Broudrd's mod of Exclusion] (Eterna round: R97, puzzle: Brourd's mod of Exclusion 4)	73	39.3				
